Source: publication PMC11640315

Biological target: Retinoid X receptor of turbot, HA-tagged (pcDNA3.1-RXR-HA) (turbot (Scophthalmus maximus))

activity of the SHP promoter, dual-luciferase reporter assay in HEK293 cells; co-transfection of FXR and RXR plasmids against the FXR plasmid: 3 times
Substance: Farnesoid X receptor of turbot, Flag-tagged (pcDNA3.1-FXR-Flag)
